PMC3266958 (Oncogene, 2011)

Biological target: purified bovine calmodulin (bovine, UniProt P62157 1-149)
Test: ITC

B1: FBXL2 (ITC with CaM, data not shown) (natural protein)
chain: MVFSNNDEGLINKKLPKELLLRIFSFLDIVTLCRCAQISKAWNILALDGSNWQRIDLFNFQTDVEGRVVENISKRCGGFLRKLSLRGCIGVGDSSLKTFAQNCRNIEHLNLNGCTKITDSTCYSLSRFCSKLKHLDLTSCVSITNSSLKGISEGCRNLEYLNLSWCDQITKDGIEALVRGCRGLKALLLRGCTQLEDEALKHIQNYCHELVSLNLQSCSRITDEGVVQICRGCHRLQALCLSGCSNLTDASLTALGLNCPRLQILEAARCSHLTDAGFTLLARNCHELEKMDLEECILITDSTLIQLSIHCPKLQALSLSHCELITDDGILHLSNSTCGHERLRVLELDNCLLITDVALEHLENCRGLERLELYDCQQVTRAGIKRMRAQLPHVKVHAYFAPVTPPTAVAGSGQRLCRCCVIL
Kd: 810 nM
